In patent publication US20120294874A1:

Key:
[1] = biological target: HLA-A201/LMP-1 monomer (recombinant, membrane free, refolded complex of HLA-A201 heavy chain, beta-2 microglobulin and LMP-1 peptide …) (human; Epstein-Barr virus); assay: Kaff from OD50 at two antigen concentrations (Beatty et al.), [Ag] 30 ng/ml
[2] = biological target: HLA-A201/LMP-1 monomer (recombinant, membrane free, refolded complex of HLA-A201 heavy chain, beta-2 microglobulin and LMP-1 peptide …) (human; Epstein-Barr virus); assay: Kaff from OD50 at two antigen concentrations (Beatty et al.), [Ag] 60 ng/ml
[3] = biological target: HLA-A201/LMP-1 monomer (recombinant, membrane free, refolded complex of HLA-A201 heavy chain, beta-2 microglobulin and LMP-1 peptide …) (human; Epstein-Barr virus); assay: dose response curve, antigen at 120 ng/ml (method of Beatty et al.)
[4] = biological target: HLA-A201/LMP-1 monomer (recombinant, membrane free, refolded complex of HLA-A201 heavy chain, beta-2 microglobulin and LMP-1 peptide …) (human; Epstein-Barr virus); assay: dose response curve, antigen at 60 ng/ml (method of Beatty et al.)
[5] = biological target: HLA-A201/LMP-1 monomer (recombinant, membrane free, refolded complex of HLA-A201 heavy chain, beta-2 microglobulin and LMP-1 peptide …) (human; Epstein-Barr virus); assay: average Kaff (Beatty et al. method)
[6] = biological target: HLA-A201/LMP-1 monomer (recombinant, membrane free, refolded complex of HLA-A201 heavy chain, beta-2 microglobulin and LMP-1 peptide …) (human; Epstein-Barr virus); assay: Kaff from OD50 at two antigen concentrations (Beatty et al.), [Ag] 15 ng/ml
[7] = biological target: HLA-A201/LMP-1 monomer (recombinant, membrane free, refolded complex of HLA-A201 heavy chain, beta-2 microglobulin and LMP-1 peptide …) (human; Epstein-Barr virus); assay: Kaff from OD50 at two antigen concentrations (Beatty et al.), [Ag] 120 ng/ml
[8] = biological target: HLA-A201/LMP-1 monomer (recombinant, membrane free, refolded complex of HLA-A201 heavy chain, beta-2 microglobulin and LMP-1 peptide …) (human; Epstein-Barr virus); assay: dose response curve, antigen at 15 ng/ml (method of Beatty et al.)
[9] = biological target: HLA-A201/LMP-1 monomer (recombinant, membrane free, refolded complex of HLA-A201 heavy chain, beta-2 microglobulin and LMP-1 peptide …) (human; Epstein-Barr virus); assay: dose response curve, antigen at 30 ng/ml (method of Beatty et al.)

Ka [1]: 8.71e+08 M⁻¹
Ka [2]: 1.01e+09 M⁻¹
[mAb] at OD50 [3]: 26.1 ng/mL
[mAb] at OD50 [4]: 54.1 ng/mL
Ka [5]: 7.17e+08 M⁻¹
Ka [6]: 4.31e+08 M⁻¹
Ka [7]: 5.7e+08 M⁻¹
[mAb] at OD50 [8]: 121 ng/mL
[mAb] at OD50 [9]: 68.1 ng/mL
Substance: BB7.2 (pan anti-HLA-A2), commercially available anti-HLA-A2 antibody
